{"source": "a protein production outcome set (Wang et al. 2014)", "assay": "label from the status in PepcDB records"}
{"sequence": "MGHHHHHHSHNSSSCPEIQGFLHVKELGKKSWKKLYVCLRRSGLYCSTKGTSKEPRHLQLLADLEDSNIFSLIAGRKQYNAPTDHGLCIKPNKVRNETKELRLLCAEDEQTRTCWMTAFRLLKYGMLLYQNYRIPQQRKALLSPFSTPVRSVSENSLVAMDFSGQTGRVIENPAEAQSAALEEGHAWRKRSTRMNILGSQSPLHPSTLSTVIHRTQ", "values": [{"measurement": "protein production", "value": "failed"}]}
{"sequence": "MGHHHHHHSHPAEYNISPETRRAQAERLAIRAQLKREYLLQYNDPNRRGLIENPALLRWAYARTINVYPNFRPTPKNSLMGALCGFGPLIFIYYIIKTERDRKEKLIQEGKLDRTFHLSY", "values": [{"measurement": "protein production", "value": "failed"}]}
{"sequence": "MGHHHHHHSHRPESFFQQSFQRLSRLGHGSYGEVFKVRSKEDGRLYAVKRSMSPFRGPKDRARKLAEVGSHEKVGQHPCCVRLEQAWEEGGILYLQTELCGPSLQQHCEAWGASLPEAQVWGYLRDTLLALAHLHSQGLVHLDVKPANIFLGPRGRCKLGDFGLLVELGTAGAGEVQEGDPRYMAPELLQGSYGTAADVFSLGLTILEVACNMELPHGGEGWQQLRQGYLPPEFTAGLSSELRSVLVMMLEPDPKLRATAEALLALPVLRQPRAWGVLWCMAAEALSRG", "values": [{"measurement": "protein production", "value": "failed"}]}
{"sequence": "MGHHKAMPYADVAAFIIELRKREAVAATALEFTILTAARSGETLGAKWHEIDWKDKIWTVPAERMKAAREHRVPLSSRTITILKKLAEFGSDENSFVFPGQKPGKPLSVMAMDMVLRRMEVDVTVHGFRSSFRDWCGEVSNFPRDVAEAALAHVVGDKTERAYRRGDALEKRRKLMAAWEKFCIAEIKKNPLEHHHHHH", "values": [{"measurement": "protein production", "value": "failed"}]}
{"sequence": "MGIENFTAKIVGLSIVSLLVVLMFLYKLIYIIPLIFIVLLVFQSEKKIFAFLSKNTKQIQPYSIEDGVFYNEKNASAVLIIDDIQMDYKDFTNSNLRSFISSFHKILDIAKDINIVLKRESLDKNVYIESLSQKIQALRIMIDSDPSNEKAKRKLELMETIISRIESGENPFRYEMYIIINSRDKNSALSTASMIRQGLEGLGIKTRLATLHEIQKLVRDFFHSKLNLNKIALPTQIPYLTPISVEKKPKSSIIIDGVLLGKDINNNGLVFWNITKSQNSHLLIVGPTGSGKTEFLIWLSTILNLIYGGTVILFDVKGDIKYRLSMYKVPFQLINPLFYRLGLLDEYDIPIRIKLLQIEKILLNSFRLSKFNSSILYNYLNRLIDISYLKYRIKWKDLEKYLSEIDDVQLKYYLSKLINILSSMEDSELPPLLHGVNENEINLIDLTLIKSEEIKRLIIYTLIQELYNKFSLEKIYDKPRVFLVLDEAWTILKNESEDYPIVADLIKRGRGYGISIIMATQNLEDLGDLANIYLDNIGVSVFMNNGDKKFWEEIRRFVNVDNDTLSNNLIFMNRGEALVRFLGDPRPVIIKLNTLAGSSF", "values": [{"measurement": "protein production", "value": "failed"}]}
{"sequence": "MGIFERYLSVWVGLSIILGVILGLWQPNIFQLITEFEIAHVNIVVAVFIWVMIYPMMVQIDFSSIQNVGKNPKGLVLTIIINWFVKPFTMAALGWLFFNYLFADLVDPESAQEYIAGMILLGVAPCTAMVFVWSQLTKGDPNYTLVQVSVNDVIMIFAFAPISAFLLGVSDIQVPWETLLISVLLYVLLPLIAGVVTRRMLNKGNDKVDAQKSAEASINADEETNTNTDSTNKSLDNLLATLKPWSVIGLLATVVLLFGFQANTIISEPQTIGLIAIPLMIQTYGIFIIAYLAAKWLKLPHNIAAPACLIGTSNFFELAVAVAISLFGLHSGAALATVVGVLVEVPVMLSLVYFINHTQNWFVEGG", "values": [{"measurement": "protein production", "value": "failed"}]}
{"sequence": "MGIKNDLEIRLQKLQQQGNFKNYLEQYPTDASTAAYFLIEIYNDGNIGGRSVIDAGTGNGILACGSYLLGAESVTAFDIDPDAIETAKRNCGGVNFMVADVSEISGKYDTWIMNPPFGSVVKHSDRAFIDKAFETSMWIYSIGNAKARDFLRREFSARGDVFREEKVYITVPRIYRHHSYDRARIEAVIFGVRNHSF", "values": [{"measurement": "protein production", "value": "not failed"}]}
{"sequence": "MGISPDAASKLYTVKFQPDPIDKKGWSVIDFNNCCTQDGGWYLNMGWGVESLIDNNPGTQWLCRWDVKEPLPYYFVFDMGKEYTLFRFGFANPVAPAAHVWAGTSKAGYVEASIDNENWVKLKDWTSPKIGEPNVNMDVPATQARYIRFVITDTYPTYDGLRVSLGEVYAWGLEHHHHHH", "values": [{"measurement": "protein production", "value": "not failed"}]}
{"sequence": "MGISTNHTTFDGLSFKTFLENLASLLHEKPLSTPPCNDRTLLKARDPPSVAFPHHELVKFQDCETTTVFEATSEHLDFKIFKLSSEQIKKLKERASETSNGNVRVTGFNVVTALVWRCKALSVAAEEGEETNLERESTILYAVDIRGRLNPELPPSYTGNAVLTAYAKEKCKALLEEPFGRIVEMVGEGSKRITDEYARSAIDWGELYKGFPHGEVLVSSWWKLGFAEVEYPWGKPKYSCPVVYHRKDIVLLFPDIDGDSKGVYVLAALPSKEMSKFQHWFEDTLC", "values": [{"measurement": "protein production", "value": "failed"}]}
{"sequence": "MGKEERAKWVNDEYAKAYEKMKSYGEQVKKADKPRVLYLKRSDLTLQGNDNFIKESMELAGADNIAAEAKSITMEEILKLDPEIILLSDFDKFLPQDLYENRIEGQDWSSVSAVVNKRVYKTPVGIYRWDAPGVETPLMMFWLGKMLQPEILEHHHHHH", "values": [{"measurement": "protein production", "value": "failed"}]}
{"sequence": "MGKEIEIERKTLVSKETFKRLISQLHIGEGDFKLQRNHYFETDDFQLKKQSSALRIREKEAIFTFTLKQPHPAGLLETNQTLSKQEAKLALESAHFPSGEVMDALRDLSIPISQLKHIGTLSTSRAEISYEQGILCLDHSSYLGIEDYEIEFEGTSEEHATVTFQEILKTFSISQVPTENKIQRFFSKKEKN", "values": [{"measurement": "protein production", "value": "not failed"}]}
{"sequence": "MGKGKSAIESQIRMLKLAKEIVEEVASSFPNLEEVYIFGSRARGDYLDTSDIDILFVFKGIKEMNVFDRMYMVSRFIRGNVDYIVLDEGEKDRVKDKVLFWKREKGFVLL", "values": [{"measurement": "protein production", "value": "not failed"}]}
{"sequence": "MGKNLKGKELGKGLYQRKDGRYEARIFVRGTGKTFSIYGTNLQHLKKERNAYLANVSPGIAGYDPRISVSKWYEKWMLIYVVHSVKATTLSNYVNGFERVREYIGYMRLIEVRPTHILDMIKGLEEEGYARTTVIQSLSVVRQLFKKAYGGKMIPIDPVADIKLPKEEPGEIPDEKIMQEQEDEKCLSIYDTHRFLESCKNTRYYELFFILLHTGLRIGEALALEWCDLDFKHEKLRVYKTLNRVTKYYDLKGNELPERYSTIQITTPKKSASNRKVPLTDAVIAAFMSWKEKQDRDKEKLGKNWGKPNILLKKYPGLIFTTSSGRSYLPSSAQTECRRIVGIVNKHEIALAEKENRDPNLMDVHPHIFRHTFVTRCIQSGMDAATVKKIAGHSDEKMTNYYTHIEEEHIDDEYELYIQKYGTET", "values": [{"measurement": "protein production", "value": "failed"}]}
{"sequence": "MGLASMESWIDLLEWPAMLVTVVAAWCIGSHRPGRRMVGFCCFIASNILWSVWGWHAQAWALIVLQLVLCLMNLRGWRKNKRASRKAPSEKVQGGADATPYHLLTSTSRGQPENPS", "values": [{"measurement": "protein production", "value": "failed"}]}
{"sequence": "MGLFTDGFKLLKKASEPLYKTPKSIQETIEIMAVAENGIFEVSKNKYSKCYRFQDINYTTATEDEQIGIFERYCKFLNSLDCNYKITINNKNKNMDELRDKVLIAEKNDGFNNYRRIYNDIIEEKIIEGRQGIEQERYLTITIERKNFEEAKAQFATLEATIHKAFIELGAEIVPLNGNERLKVLYDYYHLGDEGSFDFDIKKAKKVGADFRNDLCNGMVKYFPDHFEDESKFCKALFIKKYPSSLSDRFINEITSLPVHSITSIDVVPVPKDLTTKVLQKKYLGIESDIIKQQRVRNKNNDFSTEISYAKRTEKKEIEEIMDDVRENDQCLFFVGVTIILMAESKKELESVCETVETIGKRNSCTIDTHYLKQREALNTALPIGVRQVETMRTLLTQSLAVLMPFNVQELNDSTGNYYGINQISKNVNIGNRKKLINGNGFVFGVPGSGKSFFCKMEMGSVFLSGDDEIIVIDPMNEYFDIAETYGGTVVNMSTYTDNYVNPLEMDVWSLDPNDSKGMVREKGEFMLGLCEQCIGDSLNSRQKSIIDRCVRKLYIDIARSKEKYIPVMSDFYDILMAQPEDEAKDIALSLELFVNGSLNIFNHQTNVDVDNRFTVYGIRDLGTELSPITMLVMMESIQNRIVENGKRGKATWLYIDEFHVLLNSEYSAKYLQQLWKKVRKQGGLCTGITQNVVDLLQNYTATTMLANSEFVALLKQANTDSSKMAEVIGVSEAQLRFVTNTASGMGLIKCGSVVIPFDNQISKDTDLYKLYNTNIHEIIEMKKHANEKNVNSL", "values": [{"measurement": "protein production", "value": "failed"}]}
{"sequence": "MGLGRQSLNIMTFSGQELTAIIKMAKSMVMADGKIKPAEIAVMTREFMRFGILQDQVDLLLKASDSIEASQAVALIARMDEERKKYVASYLGVIMASDGDIDDNELALWTLISTLCGLPTMTVMEAINNMKNL", "values": [{"measurement": "protein production", "value": "not failed"}]}
{"sequence": "MGLKSNSAILPKALFCWSGGKDSAYCLHKVLLEKQFDVCYLLTTVNDTFKRISMHGVRETLLDKQTESIGIPCIKIRIKEGTNSEYEQLMETTLLKAKEEGITHVIFGDIFLEDLRTYRENNLDKVGLQAVFPLWKMDTGILIRDFIRKKFKTILCCINDGYLDETWAGREIDAVFIAQLPGHVDPCGENGEYHTFCYDGPLFQKAITVSTGEKIYKPLDYSLDDVCQSTVPTKGFWYCDLIPD", "values": [{"measurement": "protein production", "value": "failed"}]}
{"sequence": "MGLSRVRAVFFDLDNTLIDTAGASRRGMLEVIKLLQSKYHYKEEAEIICDKVQVKLSKECFHPYSTCITDVRTSHWEEAIQETKGGADNRKLAEECYFLWKSTRLQHMILADDVKAMLTELRKEVRLLLLTNGDRQTQREKIEACACQSYFDAIVIGGEQKEEKPAPSIFYHCCDLLGVQPGDCVMVGDTLETDIQGGLNAGLKATVWINKSGRVPLTSSPMPHYMVSSVLELPALLQSIDCKVSMSV", "values": [{"measurement": "protein production", "value": "not failed"}]}
{"sequence": "MGLSVGIVGLPNVGKSSTFNALTKTQNAQSANYPFCTIEPNKAIVNVPDRRLDALAQIVKPERILHSVVEFVDIAGLIKGASKGEGLGNQFLANIKECEVILQVVRCFEDDNITHVNDKIDPLNDIETIELELILADIAALDKRIDRLQKALKSSKDAKNLLECALSLKTHLEELKPAKTFPLNTSEAFLELDKELRFLSHKKMIYVANVGEEDLNALNEHAKKVKNHAKEQNSEFVALCAKLEEEMVSMSGDEVKEFLQSLGVEESGLEKTIRLSFKELGLINYFTAGVKEVRSWTIKKGSSAPVAAGVIHKDFEKGFIRAETISYDDFIAYKGEAGAKEKGALRIEGKDYIVQDGDVLHFRFNI", "values": [{"measurement": "protein production", "value": "failed"}]}
{"sequence": "MGMKDVFKRYLVFVIGLYFLAAGIVLIVRSALGTTPISSVNYVLSLNSPLSLGTCTFLINMLLILGQFWVIRKNKTRQDTIEILLQLPFSFIFSAFIDFNMALTSNLHPDNYGMSIALLLTGCMIQSIGVVLELKPKVAMMSAEAFVKYASRRYNKEFGKFKVCFDVTLVTLAVILSLLLSQCIEGVREGSLIAACITGYIVSFLNQKIMTRKTLYKLLPVLK", "values": [{"measurement": "protein production", "value": "failed"}]}
{"sequence": "MGMVFGKIAVETPKYTVTKSGDGYEIREYPPAVAAEVTYDASEFKGDKDGGFQLLAKYIGVFGKPENEKPEKIAMTAPVITKEGEKIAMTAPVITKESEKIEMTSPVVTKEGGGEGRKKLVTMQFLLPSMYKKAEEAPRPTDERVVIKEEGGRKYGVIKFSGIASESVVSEKVKKLSSHLEKDGFKITGDFVLARYNPPWTLPPFRTNEVMIPVE", "values": [{"measurement": "protein production", "value": "failed"}]}
{"sequence": "MGNCCVSSGTTDRENENVSDKNTTIVEEETVVKEVLSETTLFTPSSSFRTSTFKDPVKTKIREDEEKKPGFLKMASDPVLIRPGSVDPEEGSEVSEICSLSLSESVSSTVVMNGYDEEHVMMKQRKSQRSPAKTRTQVTGNNYPTRRTDQSPRKRNNGTCNGARYGSGVRDPGERSGRRSRSPATNRSVMDSNQSSRVGGAKTRKNNQSPGRVRLDPAKNGLDQQQHQNYGYTTEELLENPLVSLECFIFL", "values": [{"measurement": "protein production", "value": "failed"}]}
{"sequence": "MGNCVFKGNGGSRKLYDKDDSLIKVVTPNGGVMELHPPIFAEFITNEFPGHVIHDSLSLRHSSPPLLHGEELFPGNIYYLLPLSSSAAATAQLDSSDQLSTPYRMSFGKTPIMAALSGGGCGVWKVRLVISPEQLAEILAEDVETEALVESVRTVAKCGGYGCGGGVHSRANSDQLSVTSSFKGKLW", "values": [{"measurement": "protein production", "value": "not failed"}]}
{"sequence": "MGNEEEKMNADIFSYEGEGIQCVYDNKNWVMCIKNWKPNNDIENIRYLEVHHATDEQFVLLKGKAVLLAAVKADGACRIDVIPMEPYKVYNIPQGIWFNTITQKDTKLVYVQDAATTAENSEYCDMTQEELNEVKEKASACLD", "values": [{"measurement": "protein production", "value": "failed"}]}
